Patent publication US20150291692A1 (INNATE PHARMA, published 2015)

Tests used:
[1] = target: T1, KIR3DL2 recombinant protein (R&D Systems) (human, UniProt P43630 28-340); experiment: SCK kinetic method
T1 construct: Bought protein; also called rec KIR3DL2; recombinant KIR3DL2-Fc fusion protein; not shown: Fc part of the bought fusion protein; not described

[2] = target: T1, KIR3DL2 recombinant protein (R&D …); experiment: regular kinetic method
[3] = target: T1, KIR3DL2 recombinant protein (R&D …); experiment: SPR (Biacore T100), antibody injected over immobilised recombinant KIR3DL2, bivalent affinity, pH 7.2
[4] = target: T2, KIR3DL1 expressed on cells (human, UniProt P43629 22-444); experiment: flow cytometry on HEK KIR3DL1 cells (row HEK-KIR3DL1)
T2 construct: also called HEK-293T/KIR3DL1
T2 sequence (P43629 22-444 limits assumed): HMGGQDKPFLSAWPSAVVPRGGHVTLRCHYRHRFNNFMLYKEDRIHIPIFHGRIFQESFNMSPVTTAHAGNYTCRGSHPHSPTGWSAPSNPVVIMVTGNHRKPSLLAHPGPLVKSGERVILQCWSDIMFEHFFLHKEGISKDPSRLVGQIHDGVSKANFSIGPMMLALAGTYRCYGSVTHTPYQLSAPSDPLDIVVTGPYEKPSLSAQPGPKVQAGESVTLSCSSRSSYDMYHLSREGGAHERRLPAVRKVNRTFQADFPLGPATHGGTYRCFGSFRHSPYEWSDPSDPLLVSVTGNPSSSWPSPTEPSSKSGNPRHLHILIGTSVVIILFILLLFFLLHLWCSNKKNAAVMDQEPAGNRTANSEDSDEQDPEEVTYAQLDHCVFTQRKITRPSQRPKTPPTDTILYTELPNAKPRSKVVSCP

[5] = target: T3, KIR3DL2 mutant M9 (L164M;P166L;V167A) (human, UniProt P43630 22-455); experiment: flow cytometry on HEK-293T cells transfected with the mutant; + no significant loss of binding, ± decrease
T3 construct: Expressed on transfected HEK-293T cells; also called Number 9
T3 sequence (P43630 22-455 L185M/P187L/V188A): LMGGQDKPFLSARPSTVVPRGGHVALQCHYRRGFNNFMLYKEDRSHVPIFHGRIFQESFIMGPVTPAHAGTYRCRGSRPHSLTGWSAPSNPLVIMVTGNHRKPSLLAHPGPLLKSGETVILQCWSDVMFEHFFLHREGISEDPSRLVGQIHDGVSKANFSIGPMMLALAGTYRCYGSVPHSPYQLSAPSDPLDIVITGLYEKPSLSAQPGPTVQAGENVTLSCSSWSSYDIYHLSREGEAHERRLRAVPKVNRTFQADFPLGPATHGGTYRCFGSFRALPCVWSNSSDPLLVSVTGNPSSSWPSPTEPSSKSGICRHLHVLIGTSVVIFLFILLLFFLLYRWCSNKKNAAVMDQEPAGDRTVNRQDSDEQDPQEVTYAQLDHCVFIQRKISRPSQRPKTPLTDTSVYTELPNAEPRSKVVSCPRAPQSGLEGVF

[6] = target: T4, KIR3DL2 mutant M11A6 (I150A;M128A) (human, UniProt P43630 22-455); experiment: as above
T4 construct: Expressed on transfected HEK-293T cells; also called Number 29 (11A6)
T4 sequence (P43630 22-455 M149A/I171A): as the sequence (P43630 22-455 L185M/P187L/V188A) above, with M128A, I150A, M164L, L166P, A167V counted along it

[7] = target: T5, KIR3DL2 mutant M10 (R136K;E141K) (human, UniProt P43630 22-455); experiment: as above
T5 construct: Expressed on transfected HEK-293T cells; also called Number 10
T5 sequence (P43630 22-455 R157K/E162K): as the sequence (P43630 22-455 L185M/P187L/V188A) above, with R136K, E141K, M164L, L166P, A167V counted along it

[8] = target: T6, KIR3DL2 mutant M11A3 (N99S;H100S;Q184A) (human, UniProt P43630 22-455); experiment: as above
T6 construct: Expressed on transfected HEK-293T cells; also called Number 26 (11A3)
T6 sequence (P43630 22-455 N120S/H121S/Q205A): as the sequence (P43630 22-455 L185M/P187L/V188A) above, with N99S, H100S, M164L, L166P, A167V, Q184A counted along it

[9] = target: T7, KIR3DL2 mutant M11A5 (V147A;Q149S) (human, UniProt P43630 22-455); experiment: as above
T7 construct: Expressed on transfected HEK-293T cells; also called Number 28 (11A5)
T7 sequence (P43630 22-455 V168A/Q170S): as the sequence (P43630 22-455 L185M/P187L/V188A) above, with V147A, Q149S, M164L, L166P, A167V counted along it

[10] = target: T8, KIR3DL2 mutant M7 (L113V;T118R) (human, UniProt P43630 22-455); experiment: as above
T8 construct: Expressed on transfected HEK-293T cells; also called Number 7
T8 sequence (P43630 22-455 L134V/T139R): as the sequence (P43630 22-455 L185M/P187L/V188A) above, with L113V, T118R, M164L, L166P, A167V counted along it

[11] = target: T9, KIR3DL2 on fresh Sezary Syndrome cells of patients (human, UniProt P43630 22-455); experiment: flow cytometry of whole blood of a Sezary Syndrome patient, antibody + GaM-PE against CD4; upper gate (CD4+ KIR3DL2+ leukemic Sezary cells)
T9 construct: whole, on cells; also called SS cells
T9 sequence (P43630 22-455): as the sequence (P43630 22-455 L185M/P187L/V188A) above, with M164L, L166P, A167V counted along it

[12] = target: T10, KIR3DL2 at the surface of HUT78 Sezary Syndrome cell line (human, UniProt P43630 22-455); experiment: flow cytometry competition on HUT78 cells; naked antibody titrated against 15C11-PE (5 µg/ml)
T10 construct: whole, on cells; Two alleles are expressed
T10 sequence (P43630 22-455): as the sequence (P43630 22-455 L185M/P187L/V188A) above, with M164L, L166P, A167V counted along it

[13] = target: T11, KIR3DL2 mutant M8 + 11 (V127I;P179T;S181T) (human, UniProt P43630 22-455); experiment: flow cytometry on HEK-293T cells transfected with the mutant; - means substantially complete loss of binding
T11 construct: Expressed on transfected HEK-293T cells; also called Number 23 (8 + 11)
T11 sequence (P43630 22-455 V148I/P200T/S202T): as the sequence (P43630 22-455 L185M/P187L/V188A) above, with V127I, M164L, L166P, A167V, P179T, S181T counted along it

[14] = target: T12, KIR3DL2 mutant M11A4 (E130S;H131S;R145S) (human, UniProt P43630 22-455); experiment: as above
T12 construct: Expressed on transfected HEK-293T cells; also called Number 27 (11A4)
T12 sequence (P43630 22-455 E151S/H152S/R166S): as the sequence (P43630 22-455 L185M/P187L/V188A) above, with E130S, H131S, R145S, M164L, L166P, A167V counted along it

[15] = target: T13, KIR3DL2 mutant M11 (P179T;S181T) (human, UniProt P43630 22-455); experiment: as above
T13 construct: Expressed on transfected HEK-293T cells; also called Number 11; mutant 11
T13 sequence (P43630 22-455 P200T/S202T): as the sequence (P43630 22-455 L185M/P187L/V188A) above, with M164L, L166P, A167V, P179T, S181T counted along it

[16] = target: T14, NK cells, including normal KIR3DL2+ NK cells (Homo sapiens, UniProt P43630); experiment: flow cytometry of whole blood of a Sezary Syndrome patient, antibody + GaM-PE against CD4; lower gate (CD4-negative NK cells)
T14 construct: full-length receptor on the cell surface; also called gate NK GaM PE+; KIR3DL2 on CD4-negative NK cells in the blood of the Sezary Syndrome patient
T14 sequence (P43630 22-455 limits assumed): as the sequence (P43630 22-455 L185M/P187L/V188A) above, with M164L, L166P, A167V counted along it

T1 sequence (P43630 28-340 A108T): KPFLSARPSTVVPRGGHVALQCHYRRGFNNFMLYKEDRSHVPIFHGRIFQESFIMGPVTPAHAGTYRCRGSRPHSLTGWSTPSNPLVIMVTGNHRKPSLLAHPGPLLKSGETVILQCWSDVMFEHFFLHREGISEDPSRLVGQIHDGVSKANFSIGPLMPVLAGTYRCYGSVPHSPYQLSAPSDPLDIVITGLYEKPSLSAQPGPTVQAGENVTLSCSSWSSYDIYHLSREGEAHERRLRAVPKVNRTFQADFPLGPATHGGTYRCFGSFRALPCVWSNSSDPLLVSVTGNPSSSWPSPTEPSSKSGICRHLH

Kd [1]	koff [1]	Kd [2]	koff [2]	Binder	other results
1.63 nM	0.000109 s⁻¹	5.61 nM	0.00132 s⁻¹	Hum12-K32-15C11 (antibody, V domains shown, also called H1/L2; H1-L2) VH: EVQLVESGGGLVQPGGSLRLSCAASGFTFSDAWMDWVRQAPGKGLEWVGRIRSKANNHATAYAASVKGRFTISRDDSKNSLYLQMNSLKTEDTAVYYCTGGYYPVYWGQGTLVTVSS VL: DIQMTQSPSSLSASVGDRVTITCKASQDINKNIAWYQHKPGKAPKLLIHYTSTLQPGVPSRFSGSGSGTDFTFTISSLQPEDIATYYCLQYDNLLTFGGGTKVEIK	
1.13 nM	0.000286 s⁻¹	4.59 nM	0.00105 s⁻¹	Hum13-K32-15C11 (antibody, V domains shown, also called H1/L3) VH: EVQLVESGGGLVQPGGSLRLSCAASGFTFSDAWMDWVRQAPGKGLEWVGRIRSKANNHATAYAASVKGRFTISRDDSKNSLYLQMNSLKTEDTAVYYCTGGYYPVYWGQGTLVTVSS VL: DIQMTQSPSSLSASVGDRVTITCKASQDINKNIAWYQHKPGKAPKLLIHYTSTLQPGVPSRFSGSGSGRDYTFTISSLQPEDIATYYCLQYDNLLTFGGGTKVEIK	
0.65 nM	0.000156 s⁻¹	1.74 nM	0.000385 s⁻¹	Hum22-K32-15C11 (antibody, V domains shown, also called H2/L2) VH: EVQLVESGGGLVQPGGSLRLSCAASGFTFSDAWMDWVRQAPGKGLEWVGEIRSKANNHATYYAASVKGRFTISRDDSKNSLYLQMNSLKTEDTAVYYCTGGYYPVYWGQGTLVTVSS VL: DIQMTQSPSSLSASVGDRVTITCKASQDINKNIAWYQHKPGKAPKLLIHYTSTLQPGVPSRFSGSGSGTDFTFTISSLQPEDIATYYCLQYDNLLTFGGGTKVEIK	
0.22 nM	0.000108 s⁻¹	0.68 nM	0.00029 s⁻¹	chimeric 15C11 of human IgG1 Fc isotype (antibody, V domains shown, Human-mouse chimeric antibody with the variable regions of murine 15C11; also called chim15C11; Chim15C11) VH: EVKLEESGGGLVQPGGSMKLSCAASGFTFSDAWMDWVRQSPEKGLEWVAEIRSKANNHATYYAESVKGRFTISRDDSKSSVYLRMNSLRAEDTGIYYCTGGYYPVYWGQGTLVTVSA VL: DIQMTQSPSSLSASLGGKVTITCKASQDINKNIAWYQHKPGKGPRLLIHYTSTLQPGFPSRFSGSGSGRDYSFSISNLEPEDLATYYCLQYDNLLTFGGGTKLEIK	

Continued, binder first:

Binder	Kd [1]	koff [1]	Kd [2]	koff [2]	other results
Hum23-K32-15C11 (antibody, V domains shown, also called H2/L3) VH: EVQLVESGGGLVQPGGSLRLSCAASGFTFSDAWMDWVRQAPGKGLEWVGEIRSKANNHATYYAASVKGRFTISRDDSKNSLYLQMNSLKTEDTAVYYCTGGYYPVYWGQGTLVTVSS VL: DIQMTQSPSSLSASVGDRVTITCKASQDINKNIAWYQHKPGKAPKLLIHYTSTLQPGVPSRFSGSGSGRDYTFTISSLQPEDIATYYCLQYDNLLTFGGGTKVEIK	0.5 nM	0.00014 s⁻¹	1.24 nM	0.000329 s⁻¹	
Hum33-K32-15C11 (antibody, V domains shown, also called H3/L3; H3-L3) VH: EVQLVESGGGLVQPGGSLRLSCAASGFTFSDAWMDWVRQAPGKGLEWVAEIRSKANNHATYYAASVKGRFTISRDDSKNSVYLQMNSLKTEDTAVYYCTGGYYPVYWGQGTLVTVSS VL: DIQMTQSPSSLSASVGDRVTITCKASQDINKNIAWYQHKPGKAPKLLIHYTSTLQPGVPSRFSGSGSGRDYTFTISSLQPEDIATYYCLQYDNLLTFGGGTKVEIK	0.33 nM	7.8e-05 s⁻¹	0.78 nM	0.00018 s⁻¹	
Hum32-K32-15C11 (antibody, V domains shown, also called H3/L2) VH: EVQLVESGGGLVQPGGSLRLSCAASGFTFSDAWMDWVRQAPGKGLEWVAEIRSKANNHATYYAASVKGRFTISRDDSKNSVYLQMNSLKTEDTAVYYCTGGYYPVYWGQGTLVTVSS VL: DIQMTQSPSSLSASVGDRVTITCKASQDINKNIAWYQHKPGKAPKLLIHYTSTLQPGVPSRFSGSGSGTDFTFTISSLQPEDIATYYCLQYDNLLTFGGGTKVEIK	0.51 nM	0.000104 s⁻¹	1.29 nM	0.00025 s⁻¹	
antibody 19H12 (antibody, mouse IgG2b, V domains shown, also called mo19H12) VH: QIQLVQSGPELKKPGETVKISCKASGYTFTNFGMNWVKQAPGKGLKWMGWINTYTGEPTYADDFKGRFAFSLETSASTAYLQINNLKNEDMATYFCARNGNFGYYFDYWGQGTTLTVSS VL: DVLMTQTPLSLPVSLGDQASFSCRSSQNIVHSNGNTYLEWYLQKPGQSPSLLIYKVSNRFSGVPDRFSGSGSGTDFTLKITRVEAEDLGVYYCFQGSHVPFTFGSGTKLEIK					Kd [3]: 0.49 nM; binding result [4]: no binding; binding result [5]: binds; binding result [6]: binds; binding result [7]: binds; binding result [8]: binds; binding result [9]: binds; binding result [10]: binds; % of cells in gate CD4 GaM PE+ [11]: 7.5%; IC50 (read off the curve) [12]: ~0.4 µg/mL; binding result [13]: no binding; binding result [14]: no binding; binding result [15]: no binding; % of cells in gate NK GaM PE+ [16]: 14.9%
antibody 22B2 (antibody, mouse IgG1, V domains shown) VH: QIQLVQSGPELKKPGETVKISCKASGYTFTNYGMNWVKQAPGKGLKWMGWINTYTGEPTYADDFKGRFAFSLETSATTAYLQINNLKNEDMATYFCSRSFGSTYGDYWGQGTTLTVSS VL: DVLMTQTPLSLPVSLGDQASISCRSSQTIVHSNGNTYLEWYLQKPGQSPKLLIYKVSNRFSGVPDRFSGSGSGTDFTLKISRVEAEDLGVYYCFQGSHVPWTFGGGTKLEIK					Kd [3]: 2.2 nM; binding result [4]: no binding; % of cells in gate CD4 GaM PE+ [11]: 7.7%; % of cells in gate NK GaM PE+ [16]: 11.6%
